Experimental data as given in patent US7728193B2, “Phytochrome-interacting protein and a use thereof” (Genomine Inc., priority 2004, dated 2010).

Key:
[1] = In vitro phosphatase assay: enzymatic activity of PAPP5 and its domain fragments on ρNPP; format: biochemical; settings: in the presence of 100 μM arachidonic acid
Experimental: In order to examine whether the inventive PAPP5 protein has enzymatic activity, an enzymatic assay was performed using […] ρ-nitrophenyl phosphate (ρNPP) as a substrate. First, the GST-PAPP5 fusion protein purified in Example <4-1> was prewarmed at 30° C. for 1 minute. The prewarmed enzyme solution was added to 100 μl of kinase/phosphatase (KP) buffer (20 mM Tris-HCl pH 7.5, 30 mM MgCl2, 1 mM EDTA, 1 mM EGTA, 0.1% β-mercaptoethanol, 0.1% ethanol) containing O-400 mM ρNPP to initiate a reaction. To examine the autohydrolysis of ρNPP at each substrate concentration, the GST-PAPP5 enzyme solution was not added to a control group. After reaction at 30° C. for 15 minutes, 900 μl of 0.25N NaOH was added to terminate the reaction. The absorbance at 410 nm was measured. After subtracting the absorbance value of the control reaction solution containing all the components except for the enzyme from that of the reaction solution containing the enzyme, the rate was calculated using a millimolar extinction coefficient (17.8) of ρ-nitrophenolate ions.
Thus, in order to confirm if PAPP5 also have this property, the present inventors examined the phosphatase activities of GST-PAPP5, GST-TPR and GST-PP2Ac in the same manner as in Example <6-1>. At this time, the concentration of ρNPP was 100 mM.

[2] = system: autophosphorylated oat phytochrome A; test: Dephosphorylation of autophosphorylated phytochrome by PAPP5 in vitro; format: biochemical; settings: Rc 664 nm or FRc 748 nm irradiation for 5 minutes
Experimental: First, KP buffer (20 mM Tris-HCl pH7.5, 30 mM MgCl2, 1 mM EDTA, 1 mM EGTA, 0.1% β-mercaptoethanol, 0.1% ethanol) containing 1 μg of purified oat phytochrome A (provided from Kumho Life and Environmental Science Laboratory, Korea) was set on ice and irradiated with Rc light output of 50 μmolS^−1m^−2 at 664 nm for 5 minutes. Then, the reaction solution was allowed to react with [γ-^32P]ATP in dark conditions for 30 minutes (autophosphorylation of phytochrome A). Following addition of 1 μg of each of the fusion proteins GST-PAPP5, GST-TPR and GST-PP2Ac prepared in Examples <4-1> and <5-1>, the reaction continued for more 30 minutes, and then stopped by adding 12 μl of 5× Tris-glycine SDS sample buffer under dim green safe light.
Next, the present inventors investigated whether the phosphatase activity of PAPP5 depends on a change in the spectroscopic structure (photoconversion) of phytochrome molecules (Pr⇄Pfr). KP buffer solution containing phytochrome was set on ice and irradiated with a Rc light output of 50 μmolS^−1m^−2 at 664 nm (conversion of phytochrome into Pfr form) or a FRc light output of 50 μmolS^−1m^−2 at 748 nm (conversion of phytochrome into […]) for 5 minutes. Then, the autophosphylation/dephosphorylation test of phytochrome was performed in the same manner as described above.

[3] = target: T1, Arabidopsis thaliana phytochrome A (Arabidopsis thaliana, UniProt P14712); test: Yeast two-hybrid analysis of specificity of interaction; format: cell-based; settings: EGY48 yeast, Leu-drop out and X-gal media
T1 construct: expressed in transfected cells; host or cells: EGY48 yeast strain with pSH18-34 reporter
T1 sequence (P14712 1-1122): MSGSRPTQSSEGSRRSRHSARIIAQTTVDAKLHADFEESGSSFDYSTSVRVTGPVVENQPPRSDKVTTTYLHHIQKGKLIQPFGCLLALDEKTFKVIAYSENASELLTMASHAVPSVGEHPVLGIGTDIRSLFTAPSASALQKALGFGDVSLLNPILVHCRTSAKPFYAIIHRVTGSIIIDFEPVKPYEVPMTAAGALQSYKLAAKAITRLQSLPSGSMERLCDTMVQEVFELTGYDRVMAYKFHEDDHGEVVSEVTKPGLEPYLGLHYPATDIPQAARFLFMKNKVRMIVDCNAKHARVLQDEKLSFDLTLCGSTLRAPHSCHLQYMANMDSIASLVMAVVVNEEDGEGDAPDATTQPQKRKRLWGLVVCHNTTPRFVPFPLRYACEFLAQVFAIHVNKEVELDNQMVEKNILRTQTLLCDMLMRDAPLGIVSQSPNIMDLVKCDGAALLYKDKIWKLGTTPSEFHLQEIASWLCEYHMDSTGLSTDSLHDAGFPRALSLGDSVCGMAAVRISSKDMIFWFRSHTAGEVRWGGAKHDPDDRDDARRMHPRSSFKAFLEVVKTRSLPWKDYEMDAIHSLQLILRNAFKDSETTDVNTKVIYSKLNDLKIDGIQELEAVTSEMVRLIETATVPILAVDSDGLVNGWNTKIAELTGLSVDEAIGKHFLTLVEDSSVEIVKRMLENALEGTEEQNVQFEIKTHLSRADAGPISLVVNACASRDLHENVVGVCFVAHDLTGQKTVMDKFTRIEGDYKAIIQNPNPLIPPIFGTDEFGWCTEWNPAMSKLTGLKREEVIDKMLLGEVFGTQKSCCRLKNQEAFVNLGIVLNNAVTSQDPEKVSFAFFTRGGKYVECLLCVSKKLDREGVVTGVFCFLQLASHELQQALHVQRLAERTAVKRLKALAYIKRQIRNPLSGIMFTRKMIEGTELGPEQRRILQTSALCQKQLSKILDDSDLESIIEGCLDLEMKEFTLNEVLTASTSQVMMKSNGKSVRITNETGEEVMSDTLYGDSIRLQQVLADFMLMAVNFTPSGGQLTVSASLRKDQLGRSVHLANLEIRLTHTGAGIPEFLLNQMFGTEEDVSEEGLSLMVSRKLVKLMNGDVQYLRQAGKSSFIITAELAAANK
Source text: A pGilda vector and a pJG4-5 vector (OriGene Technologies) were used to prepare a prey and a bait, […] (see FIG. 4). In this case, as control groups to examine specific binding, hepatitis C virus (HCV) protein NS5A(N) (distributed from professor S K Jang, Department of Life Science, Pohang University of Science and Technology, Korea) and another plant protein SPINDLY(SPY) having the TPR domain (Jacobsen, S. E., et al., Proc. Natl. Acad. Sci. U.S.A. 93:9292-9296, 1996) were used. Furthermore, the prey and the bait were interchanged to observe protein-protein binding by a reciprocal method. The prepared prey and bait together with a pSH18-34 reporter plasmid (OriGene Technologies) were co-introduced into an EGY48 yeast strain (OriGene Technologies). Next, the transformants were selected on a media containing X-gal (5-bromo-4-chloro-3-indolyl-β-D-galactopyranoside; Rose Scientific Ltd.). Plate-growth assays were performed on Leu-drop out media and X-gal media.

PAPP5: type 5 serine/threonine protein phosphatase of Arabidopsis thaliana interacting with phytochromes, SEQ ID NO: 4
Km (Michaelis-Menten) [1]: 160 mM ρNPP
Vmax (Michaelis-Menten) [1]: 22 μmmol Pi released/min/mg
dephosphorylation by PAPP5 according to the form of phytochrome (Pfr vs Pr) [2]: higher in Pfr phytochrome
interaction with phytochrome A in yeast two-hybrid [3]: interacted specifically
